Data taken from publication PMC4966588.

Target: gp41 of HIV-1 NL4.3 viral particles (HIV-1 NL4.3)

Row | Molecule | cytosolic viral p24 (ELISA) in primary CD4+ T cells pretreated with AAT and infected with HIV-1 NL4.3 Gag-iGFP [% decrease] | entry of HIV-1 NL4.3 Gag-iGFP into primary CD4+ T cells pretreated with AAT (0.5 g/L), GFP by flow cytometry, against untreated cells [% decrease] | cytosolic viral p24 (ELISA) in primary CD4+ T cells pretreated with C and infected with HIV-1 NL4.3 Gag-iGFP, against cells pretreated with AAT [% decrease] | entry of HIV-1 NL4.3 Gag-iGFP into primary CD4+ T cells pretreated with C (0.05 g/L), GFP by flow cytometry, against cells pretreated with AAT [% decrease]
1 | alpha-1-antitrypsin (from UniProt P01009 25-418) (natural protein) | > 60 | > 60 |  | 
2 | KGTEAAGAMFLEAIPMSIPPEVKFNKPFVFLMIDQNTKSP [synthesized C-terminus fragment of AAT] |  |  | > 50 | > 50
